Assay results as given in patent publication US20060165677A1, “DELETION FORMS OF IgE-DEPENDENT HISTAMINE RELEASING FACTOR HAVING HISTAMINE RELEASING ACTIVITY, HRF-BINDING PEPTIDES AND THE USES THEREOF” (EWHA UNIVERSITY-INDUSTRY COLLABORATION FOUNDATION, priority 2005, published 2006).
“Also recorded” adds a separate entry of the source.

How the values were obtained:
[1] = system: phage φ-HBP-2 expressing HRF-binding peptide; assay: Phage display peptide clone-binding capacity of immobilized HRF forms (ELISA); conditions: HRF form immobilized on plate, ELISA at 405 nm
Experimental: Each deletion form of HRF was immobilized on a plastic well, to which phage expressing HRF-binding peptide was added in order to investigate binding capacity of each HRF.
Particularly, each deletion form of HRF dissolved in coating buffer (0.1 M NaHCO3, pH 8.6) at the concentration of 20 μg/Ml was placed on polystyrene microtiter plate by 50 μl, followed by coating at 4° C. for overnight and non-specific binding was blocked with BSA. The plate was washed with 0.1% tween/TBS (TBST) 6 times, to which 30 μl of phage solution diluted in 30 μl of 6% BSA/PBS was added. The solution stood at room temperature for 2 hours. After washing with PBST five times, 100 μl of […] anti-M13 antibody (Pharmacia), diluted in 3% BSA/PBS at the ratio of 1:5000, was added to the solution, followed by standing at room temperature for one hour. After washing 6 times with PBST and once more with PBS, 100 μl of peroxidase substrate solution was added and color development was measured at 405 nm by using ELISA reader (Bio-Rad).

deletion forms of HRF = assay: Inhibition by HRF-binding peptide of HRF-induced histamine secretion in RBL-2H3 cells; format: cell-based; conditions: RBL-2H3 cells sensitized with rat IgE
Experimental: RBL-2H3 cells (ATCC) were cultured in 24-well plate at the concentration of 5×10^4 cells/well, followed by sensitization with rat IgE antibody (0.2 μg/Ml, Serotec) for 60 minutes. The cells were treated with […] of recombinant HRF protein in 5% FBS/MEM medium (positive control). The cells were treated with heptamer peptide (Korean Registered Patent No. 457350B1) with different concentrations (0.0156-15.6 mM). 15 minutes later, rat anti-IgE antibody was added thereto. 4 hours later, supernatant was obtained and the isolated histamine was measured by using histamine analyzer (Astoria Analyzer, Series 300 system).

Del-N35HRF = molecular target: T1, Del-N35HRF (Rattus norvegicus, UniProt P63029); assay: Inhibition by HRF-binding peptides of Del-N35HRF-induced IL-8 secretion in BEAS-2B cells; format: cell-based; conditions: Del-N35HRF 61 nM, peptide 6.1-610 nM, 24 hours
T1 construct: 6xHis (pRSET-A leader) (N); made in house; host or cells: E. coli BL21(DE3) or BL21(DE3)pLysS
T1 sequence (P63029 35-172): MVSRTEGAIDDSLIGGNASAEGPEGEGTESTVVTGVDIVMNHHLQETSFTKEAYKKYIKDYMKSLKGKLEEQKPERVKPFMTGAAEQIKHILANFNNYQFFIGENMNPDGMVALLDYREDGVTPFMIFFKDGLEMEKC
Experimental: The interactions between HRF-binding peptides and deletion forms of HRF were investigated in BEAS-2B cells. Del-N35HRF (61 nM) was treated to BEAS-2B cells by the same manner as described in Example 3. At that time, HRF-binding peptide and its mutant in which alanine was replaced (Korean Registered Patent No. 457350B1), and HRF-binding peptides in which amino acid 1 or 7 was deleted were added to Del-N35HRF with different concentrations (6.1-610 nM), followed by standing at room temperature for 10 minutes, which would be added to the cell lines. 24 hours later, supernatant was obtained and the released IL-8 was quantified by PIERCE.

BEAS-2B cells = assay: IL-8 releasing activity in BEAS-2B cells according to HRF forms; format: cell-based; conditions: for IL-8 releasing activity at low level of HRF: HRF 1 μg/Ml, lower than minimum level for IL-8 secretion by wild type HRF; for IL-8 releasing activity: compared with wild type HRF
Experimental: The activities of different deletion forms of HRF were compared by investigating IL-8 secretions in BEAS-2B cells (ATCC). BEAS-2B cells were cultured in 48-well plate until they were 70% grown up. Then, the cells were washed with 1% penicillin-streptomycin/BEBM (Clonetics) twice, to which each recombinant protein (RrHRF or each deletion form of HRF) separated in Example <1-3> was added by 1 μg/Ml or 10 μg/Ml. 48 or 24 hours later, supernatant was obtained and IL-8 therein was measured by PIERCE (FIG. 5).

[2] = system: IgE sensitized human basophils; assay: Histamine releasing activity in human basophils according to HRF forms; format: cell-based; conditions: compared with wild type HRF
Experimental: The activities of different deletion forms of HRF were compared by investigating histamine secretions in human basophils. 40 Ml of venous blood was taken from a donor with atopic dermatitis. To the blood sample was added 10 mM of EDTA, an anticoagulant, and 10 Ml of dextran containing 6% saline. The solution stood at room temperature for 90 minutes and then supernatant containing leukocytes was separated, followed by centrifugation at 150×g for 8 minutes. The recovered leukocytes were washed twice with PAG-EDTA (4 mM EDTA, 25 mM PIPES, 110 mM NaCl, 5 mM KCl, 0.003% HSA, 0.1% D-glucose), which were left in cold lactate buffer (13.4 mM lactic acid, 140 mM NaCl, 5 mM KCl, pH 3.9) for 3-5 minutes to eliminate IgE adhered on the surface of cells. The cells were washed with 30 Ml of PAG-EDTA twice and resuspended in PAG-EDTA, followed by IgE-sensitization (1 μg/Ml, Serotec) for 2 hours. Then, the cells were washed with IMDM medium (Gibco BRL) supplemented with 5% FBS twice, to which each recombinant protein (rHRF or each deletion form of HRF) prepared in Example <1-3> was added by 20 μg/Ml. 15 minutes later, human anti-IgE antibody was added thereto. Four hours later, supernatant was obtained. The isolated histamine was measured by histamine analyzer (Astoria Analyzer, Series 300 system) (FIG. 6).

Molecule: Del-N84C108HRF: deletion form of rat HRF, amino acid 84-108 fragment (TKEAYKKYIKDYMKSLKGKLEEQKP; listed as Rattus norvegicus)
- affinity to phage expressing HRF-binding heptamer peptide (HBP2) [1]: high
- affinity to phage expressing HRF-binding heptamer peptide (HBP2) ([1]; listed as SEQ ID NO:8): excellent

Molecule: HBP-2: HRF-binding heptamer peptide having the sequence WYVYPSM (Korean Registered Patent No. 457350B1)
- inhibition of histamine releasing by deletion forms of HRF (deletion forms of HRF): inhibits
- inhibition of histamine releasing by deletion forms of HRF (deletion forms of HRF; listed as HRF-binding peptide): dose-dependently
- inhibition of IL-8 secretion by deletion forms of HRF (Del-N35HRF): inhibits
- inhibition of IL-8 secretion by deletion forms of HRF (Del-N35HRF; listed as HRF-binding peptide): dose-dependently

B1: Del-N11HRF: deletion form of rat HRF, amino acid 11-172 fragment; 10 N-terminal residues deleted (protein, listed as Rattus norvegicus)
chain: DELFSDIYKIREIADGLCLEVEGKMVSRTEGAIDDSLIGGNASAEGPEGEGTESTVVTGVDIVMNHHLQETSFTKEAYKKYIKDYMKSLKGKLEEQKPERVKPFMTGAAEQIKHILANFNNYQFFIGENMNPDGMVALLDYREDGVTPFMIFFKDGLEMEKC
- IL-8 releasing activity at low level of HRF (BEAS-2B cells): detected
- IL-8 releasing activity (BEAS-2B cells): greater
- IL-8 releasing activity (BEAS-2B cells; listed as SEQ ID NO:2): increased
- histamine releasing activity [2]: more effectively than wild type HRF; also recorded: increased
- histamine releasing activity ([2]; listed as SEQ ID NO:2): similarly induced histamine releasing
- affinity to phage expressing HRF-binding heptamer peptide (HBP2) [1]: very strong

B2: Del-N35HRF: deletion form of rat HRF, amino acid 35-172 fragment; 34 N-terminal residues deleted (protein, listed as Rattus norvegicus)
chain: MVSRTEGAIDDSLIGGNASAEGPEGEGTESTVVTGVDIVMNHHLQETSFTKEAYKKYIKDYMKSLKGKLEEQKPERVKPFMTGAAEQIKHILANFNNYQFFIGENMNPDGMVALLDYREDGVTPFMIFFKDGLEMEKC
- IL-8 releasing activity at low level of HRF (BEAS-2B cells): detected
- IL-8 releasing activity (BEAS-2B cells): greater
- IL-8 releasing activity (BEAS-2B cells; listed as SEQ ID NO:3): excellent; also recorded: increased
- histamine releasing activity [2]: more effectively than wild type HRF; also recorded: increased
- histamine releasing activity ([2]; listed as SEQ ID NO:3): excellent; also recorded: similarly induced histamine releasing
- affinity to phage expressing HRF-binding heptamer peptide (HBP2) [1]: very strong

B3: Del-N39C110HRF: deletion form of rat HRF, amino acid 39-110 fragment (protein, listed as Rattus norvegicus)
chain: TEGAIDDSLIGGNASAEGPEGEGTESTVVTGVDIVMNHHLQETSFTKEAYKKYIKDYMKSLKGKLEEQKPER
- affinity to phage expressing HRF-binding heptamer peptide (HBP2) ([1]; listed as SEQ ID NO:5): excellent

B4: RrHRF: recombinant total-length rat HRF, amino acids 1-172 (Accession number U20525) (protein, listed as Rattus norvegicus)
chain: MIIYRDLISHDELFSDIYKIREIADGLCLEVEGKMVSRTEGAIDDSLIGGNASAEGPEGEGTESTVVTGVDIVMNHHLQETSFTKEAYKKYIKDYMKSLKGKLEEQKPERVKPFMTGAAEQIKHILANFNNYQFFIGENMNPDGMVALLDYREDGVTPFMIFFKDGLEMEKC
- affinity to phage expressing HRF-binding heptamer peptide (HBP2) [1]: very weak
- affinity to phage expressing HRF-binding heptamer peptide (HBP2) ([1]; listed as wild type HRF): weak

B5: Del-C112HRF: deletion form of rat HRF, amino acid 1-112 fragment (protein, listed as Rattus norvegicus)
chain: MIIYRDLISHDELFSDIYKIREIADGLCLEVEGKMVSRTEGAIDDSLIGGNASAEGPEGEGTESTVVTGVDIVMNHHLQETSFTKEAYKKYIKDYMKSLKGKLEEQKPERVK
- histamine releasing activity [2]: as much as that of wild type HRF
- affinity to phage expressing HRF-binding heptamer peptide (HBP2) [1]: very weak and weak
